The text below walks through data of patent US20090203886A1 (OSAKA UNIVERSITY, published 2009).

Assay [1] concerns the target T1, human CD20 antigen (human, UniProt P11836 1-297).
T1 sequence (looked up): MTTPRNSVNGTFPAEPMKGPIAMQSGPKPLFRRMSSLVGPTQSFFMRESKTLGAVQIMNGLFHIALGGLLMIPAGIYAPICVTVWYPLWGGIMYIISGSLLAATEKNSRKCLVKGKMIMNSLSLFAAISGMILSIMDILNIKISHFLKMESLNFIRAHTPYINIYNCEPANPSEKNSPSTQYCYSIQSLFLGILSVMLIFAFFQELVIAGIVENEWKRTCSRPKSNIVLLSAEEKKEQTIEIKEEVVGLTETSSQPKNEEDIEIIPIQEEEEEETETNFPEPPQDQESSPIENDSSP
Description: cell-based or functional assay.

The target of assay [2] is T1, human CD20 antigen. Description: Scatchard analysis on Raji cells, FITC secondary antibody fluorescence (Example 2). The method, then: The mixture was shaken for one hour at room temperature while shielding against light and primary antibodies binding to cells were detected. After the reaction, the mixture was centrifuged at 3,000 rpm for three minutes and the cells were recovered. The cells were suspended in 200 μl of PBS to remove unreacted FITC-labeled anti murine IgG (H&L) antibody remaining on the cell surface and then centrifuged at 3,000 rpm for three minutes to remove the supernatant. This operation was repeated twice.
After the detection step, the image was digitized using image analysis software Image Quant (Amersham Bioscience) and analyzed using Excel (Microsoft). Background values for the plate, the PBS solution and FITC-labeled secondary antibody displaying non-specific binding to cells were determined. Then a value for the reaction only between the cells and the FITC-labeled secondary antibodies was obtained. Average values for those four points were subtracted from the fluorescent intensity value for each sample in order to obtain the amount of fluorescence of cell-conjugated FITC-labeled secondary antibody. A standard curve was prepared by measuring the amount of fluorescence at various concentrations of control cell-conjugated FITC-labeled secondary antibodies. Thus the amount of cell-conjugated secondary antibody (number of moles or weight) was calculated. The amount of cell-conjugated primary antibody was calculated assuming that each primary antibody and the FITC-labeled secondary antibody react at a ratio of 1:2. Primary antibody in suspension was calculated by subtracting the cell-conjugated amount from the added amount. When calculating the antibody concentration as a molar concentration, the molecular weight of the monoclonal was taken to be 150,000.
Scatchard analysis was used to calculate the antigen number and dissociation constant (Kd value) refer to Scatchard, G.; Ann. N.Y. Acad.

For assay [3], the target named is T1, human CD20 antigen. Description: cell-based or functional assay. The source holds these as a separate data set.
Assay [4] deals with T1, human CD20 antigen. In words: cell-based or functional assay. The source holds these as a separate data set.

By Kd is commonly meant the free concentration of one partner at which half of the binding sites on the other are occupied at equilibrium, for simple one-to-one binding. Consider “2B8 murine anti CD20 antibody (positive control)”, for which the Cell growth inhibiting test on Raji cells, Absorption (492 nm) (absorbance 492 nm) in assay [1] was determined as 1.76. In assay [2], this molecule came in with a Kd of 6.79 nM.

B1: 1K1782 murine anti CD20 monoclonal antibody (antibody, V domains shown)
VH: QVQLQQSGAELAKPGASVKMSCKASGYTFTSYWMHWVKQRPGQGLEWIGYITPSTGYTDYNKKFKDKATLTADRSSSTAYMHLSSLTSEDSAVYYCARSGPYFDVWGAGTTVTVSS
VL: DILLTQSPAILFVSPGERVSLSCRASQNIGTSIHWYQQRTNGSPRLLIKYASESFSGIPSRFSGSGSGTDFTLSINSVESEDIADYYCQQSNSWPFTFGSGTKLEIK
notes: also called m1782
In the case of B1, in assay [3], the “Cell growth inhibiting test on Raji cells, Absorption (492 nm)” value amounted to 2.6 absorbance 492 nm. Also, the “Capacity to Induce Apoptosis (Raji cells)” value in assay [4] was 30. In assay [2], this molecule displayed a Kd of 0.4 nM.

B2: 1K1791 murine anti CD20 monoclonal antibody (antibody, V domains shown)
VH: QIQLVQSGPELKKPGETVKISCKASGYTFTNFGVNWVKQAPGKGLKWMGWINTYTGEPSYADDFKGRFAFSLEASANTAYLQINNLKNDDMSTYFCTRRTNYYGTSYYYAMDYWGQGTSVTVSS
VL: STVMTQTPKFLLVSAGDRVTITCKASQSVSNDVAWYQQKPGQSPKVLIYFASNRYTGVPDRFTGSGYGTDFTFTINTVQAEDLAVYFCQQDYSSPLTFGAGTKLELK
notes: also called m1791
B2: the “Cell growth inhibiting test on Raji cells, Absorption (492 nm)” value in assay [3] came to 1.79 absorbance 492 nm. In assay [4], the “Capacity to Induce Apoptosis (Raji cells)” value came to 160. In assay [2], this molecule displayed a Kd of 1.7 nM.
